Consider eleven molecules from patent US20180155451A1 (published 2018).

Sequences and labels used below:
T1: FcγRIIb extracellular domain with C-terminal His tag (human, UniProt P31994 43-217)
T1 construct: extracellular domain; Soluble receptor expressed in FreeStyle293 cells, used as analyte in Biacore; also called FcgRIIb; CD32B; not shown: His tag at the C terminus
T1 sequence (looked up): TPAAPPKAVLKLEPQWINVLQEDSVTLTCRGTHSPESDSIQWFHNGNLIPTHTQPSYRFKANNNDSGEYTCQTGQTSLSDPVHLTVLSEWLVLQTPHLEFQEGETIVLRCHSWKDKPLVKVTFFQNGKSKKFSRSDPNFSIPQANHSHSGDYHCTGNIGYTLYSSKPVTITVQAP

B1: GpH7-A5/GpH7-B3 variant P238_13S/GpL16-k0 (antibody, human IgG1, kappa)
heavy 1: not shown
heavy 2: not shown
light: DIVMTQSPLSLPVTPGEPASISCQASESLVHSNRNTYLHWYLQKPGQSPQLLIYKVSNRFSGVPDRFSGSGSGTDFTLKISRVEAEDVGVYYCSQNTHVPPTFGQGTKVEIERTVAAPSVFIFPPSDEQLKSGTASVVCLLNNFYPREAKVQWKVDNALQSGNSQESVTEQDSKDSTYSLSSTLTLSKADYEKHKVYACEVTHQGLSSPVTKSFNRGEC
notes: Heterodimerized anti-glypican-3 IgG1; substitution in only one H chain; also called P238S; He Ab
B2: GpH7-A5/GpH7-B3 variant G237_14T/GpL16-k0 (antibody, human IgG1, kappa)
heavy 1: not shown
heavy 2: not shown
light: B1 light
notes: Heterodimerized anti-glypican-3 IgG1; substitution in only one H chain; also called G237T; He Ab
B3: GpH7-A5/GpH7-B3 variant S239_16H/GpL16-k0 (antibody, human IgG1, kappa)
heavy 1: not shown
heavy 2: not shown
light: B1 light
notes: Heterodimerized anti-glypican-3 IgG1; substitution in only one H chain; also called S239H; He Ab
B4: GpH7-A5/GpH7-B3 variant P238_12R/GpL16-k0 (antibody, human IgG1, kappa)
heavy 1: not shown
heavy 2: not shown
light: B1 light
notes: Heterodimerized anti-glypican-3 IgG1; substitution in only one H chain; also called P238R; He Ab
B5: GpH7-A5/GpH7-B3 variant P238_02A/GpL16-k0 (antibody, human IgG1, kappa)
heavy 1: not shown
heavy 2: not shown
light: B1 light
notes: Heterodimerized anti-glypican-3 IgG1; substitution in only one H chain; also called P238A; He Ab
B6: GpH7-A5/GpH7-B3 variant S239_12R/GpL16-k0 (antibody, human IgG1, kappa)
heavy 1: not shown
heavy 2: not shown
light: B1 light
notes: Heterodimerized anti-glypican-3 IgG1; substitution in only one H chain; also called S239R; He Ab
B7: GpH7-A5/GpH7-B3 variant P238_07I/GpL16-k0 (antibody, human IgG1, kappa)
heavy 1: not shown
heavy 2: not shown
light: B1 light
notes: Heterodimerized anti-glypican-3 IgG1; substitution in only one H chain; also called P238I; He Ab
B8: GpH7-A5/GpH7-B3 variant P238_18N/GpL16-k0 (antibody, human IgG1, kappa)
heavy 1: not shown
heavy 2: not shown
light: B1 light
notes: Heterodimerized anti-glypican-3 IgG1; substitution in only one H chain; also called P238N; He Ab
B9: GpH7-A5/GpH7-B3 variant P238_01G/GpL16-k0 (antibody, human IgG1, kappa)
heavy 1: not shown
heavy 2: not shown
light: B1 light
notes: Heterodimerized anti-glypican-3 IgG1; substitution in only one H chain; also called P238G; He Ab
B10: GpH7-A5/GpH7-B3 variant G237_11K/GpL16-k0 (antibody, human IgG1, kappa)
heavy 1: not shown
heavy 2: not shown
light: B1 light
notes: Heterodimerized anti-glypican-3 IgG1; substitution in only one H chain; also called G237K; He Ab
B11: GpH7-A5/GpH7-B3 variant G237_12R/GpL16-k0 (antibody, human IgG1, kappa)
heavy 1: not shown
heavy 2: not shown
light: B1 light
notes: Heterodimerized anti-glypican-3 IgG1; substitution in only one H chain; also called G237R; He Ab

T2 sequence (P12314 16-292): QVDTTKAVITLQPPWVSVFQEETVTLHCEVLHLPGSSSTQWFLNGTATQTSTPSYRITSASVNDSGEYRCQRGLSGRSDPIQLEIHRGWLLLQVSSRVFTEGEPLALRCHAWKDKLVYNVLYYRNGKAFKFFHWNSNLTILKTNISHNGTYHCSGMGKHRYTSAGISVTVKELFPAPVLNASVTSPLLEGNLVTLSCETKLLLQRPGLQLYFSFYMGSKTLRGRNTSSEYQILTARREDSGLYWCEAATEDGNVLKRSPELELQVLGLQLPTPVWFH

For the first assay, the target named is T1, FcγRIIb extracellular domain with …. Kind of assay: SPR (Biacore), antibody captured via antigen peptide, FcγR as analyte; binding relative to GpH7-A5/GpH7-B3/GpL16-k0 = 100. In general terms: In SPR one partner is held on a chip, and binding of the other changes the refractive index at the surface.
As for B1, the He/Con_2b is 70.4 % of control (GpH7-A5/GpH7-B3/GpL16-k0 = 100).
On to B2, for which the He/Con_2b is 54.8 % of control (GpH7-A5/GpH7-B3/GpL16-k0 = 100).
Consider B3, for which the He/Con_2b was 49.4 % of control (GpH7-A5/GpH7-B3/GpL16-k0 = 100).
As for B4, the He/Con_2b is 51.4 % of control (GpH7-A5/GpH7-B3/GpL16-k0 = 100).
With B5, the He/Con_2b was 57.4 % of control (GpH7-A5/GpH7-B3/GpL16-k0 = 100).
Same read-out and setting: as for B6, the figure is 39.1 % of control (GpH7-A5/GpH7-B3/GpL16-k0 = 100); as for B7, 80 % of control (GpH7-A5/GpH7-B3/GpL16-k0 = 100); as for B8, 73.2 % of control (GpH7-A5/GpH7-B3/GpL16-k0 = 100).
With B9, the He/Con_2b is 56 % of control (GpH7-A5/GpH7-B3/GpL16-k0 = 100).

A further assay has as its target T2, FcγRIa extracellular domain with C-terminal His tag (human, UniProt P12314 16-292).
T2 construct: extracellular domain; Soluble receptor expressed in FreeStyle293 cells, used as analyte in Biacore; also called FcgRI; CD64; not shown: His tag at the C terminus
Described as above.
Consider B10, for which the He/Con_1a was 63.3 % of control (GpH7-A5/GpH7-B3/GpL16-k0 = 100).
For the molecule B11, the He/Con_1a is 65.8 % of control (GpH7-A5/GpH7-B3/GpL16-k0 = 100).
The same measure, in the same setting: as for B1, the figure is 96.6 % of control (GpH7-A5/GpH7-B3/GpL16-k0 = 100); as for B2, 82.3 % of control (GpH7-A5/GpH7-B3/GpL16-k0 = 100); as for B3, 88.1 % of control (GpH7-A5/GpH7-B3/GpL16-k0 = 100).
For the molecule B4, the He/Con_1a was 77.3 % of control (GpH7-A5/GpH7-B3/GpL16-k0 = 100).
On to B5, for which the He/Con_1a is 95.2 % of control (GpH7-A5/GpH7-B3/GpL16-k0 = 100).
As to B6, the He/Con_1a is 86.5 % of control (GpH7-A5/GpH7-B3/GpL16-k0 = 100).
B7: the He/Con_1a was 99.1 % of control (GpH7-A5/GpH7-B3/GpL16-k0 = 100).
Take B8: the He/Con_1a was 93.3 % of control (GpH7-A5/GpH7-B3/GpL16-k0 = 100).
Take B9: the He/Con_1a was 92.9 % of control (GpH7-A5/GpH7-B3/GpL16-k0 = 100).

The target of another assay is T2, FcγRIa extracellular domain with …. Briefly: SPR (Biacore); ratio of He/Con_1a (FcγRIa) to He/Con_2b (FcγRIIb) of the same antibody.
Take B10: the “Ia/IIb He_1a/2b” value was 7.05.
As to B11, the “Ia/IIb He_1a/2b” value turned out to be 6.71.
Turning to B1, the “Ia/IIb He_1a/2b” value was 1.37.
As for B2, the “Ia/IIb He_1a/2b” value was 1.5.
As to B3, the “Ia/IIb He_1a/2b” value worked out at 1.78.
As for B4, the “Ia/IIb He_1a/2b” value stood at 1.5.
On to B5, for which the “Ia/IIb He_1a/2b” value came out at 1.66.
As to B6, the “Ia/IIb He_1a/2b” value was 2.21.
For B7, the “Ia/IIb He_1a/2b” value was 1.24.
On to B8, for which the “Ia/IIb He_1a/2b” value was determined as 1.27.
For B9, the “Ia/IIb He_1a/2b” value amounted to 1.66.
